From paper PMC5575768

Biological target: filamentous actin from rabbit skeletal muscle (rabbit) (UniProt P68135)
Assay: differential scanning calorimetry

melt temperature of the Tm–actin interaction | melt temperature of the Tn–Tm–actin interaction (Tn with cTnT R92L) | Substance
47.9 °C | – | α-tropomyosin D230N, with N-terminal ala-ser (natural protein)
47.2 °C | 47.3 °C | α-tropomyosin, wild type, with N-terminal ala-ser (natural protein)
